Laboratory results reported in US20150210998.
Residue numbers refer to the chain shown, from its start.

B1: GST-E6APK688A (protein)
chain: MATACKRSGEPQSDDIEASRMKRAAAKHLIERYYHQLTEGCGNEACTNEFCASCPTFLRMDNNAAAIKALELYKINAKLCDPHPSKKGASSAYLENSKGAPNNSCSEIKMNKKGARIDFKDVTYLTEEKVYEILELCREREDYSPLIRVIGRVFSSAEALVQSFRKVKQHTKEELKSLQAKDEDKDEDEKEKAACSAAAMEEDSEASSSRIGDSSQGDNNLQKLGPDDVSVDIDAIRRVYTRLLSNEKIETAFLNALVYLSPNVECDLTYHNVYSRDPNYLNLFIIVMENRNLHSPEYLEMALPLFCKAMSKLPLAAQGKLIRLWSKYNADQIRRMMETFQQLITYKVISNEFNSRNLVNDDDAIVAASKCLKMVYYANVVGGEVDTNHNEEDDEEPIPESSELTLQELLGEERRNKKGPRVDPLETELGVKTLDCRKPLIPFEEFINEPLNEVLEMDKDYTFFKVETENKFSFMTCPFILNAVTKNLGLYYDNRIRMYSERRITVLYSLVQGQQLNPYLRLKVRRDHIIDDALVRLEMIAMENPADLKKQLYVEFEGEQGVDEGGVSKEFFQLVVEEIFNPDIGMFTYDESTKLFWFNPSSFETEGQFTLIGIVLGLAIYNNCILDVHFPMVVYRKLMGKKGTFRDLGDSHPVLYQSLKDLLEYEGNVEDDMMITFQISQTDLFGNPMMYDLKENGDKIPITNENRAEFVNLYSDYILNKSVEKQFKAFRRGFHMVTNESPLKYLFRPEEIELLICGSRNLDFQALEETTEYDGGYTRDSVLIREFWEIVHSFTDEQKRLFLQFTTGTDRAPVGGLGKLKMIIAKNGPDTERLPTSHTCFNVLLLPEYSSKEKLKERLLKAITYAKGFGML
B2: GST-E6APR626A (protein)
chain: B1 chain with R646A, A708K
B3: GST-E6APD543A (protein)
chain: B1 chain with D563A, A708K
B4: GST-E6APY533A (protein)
chain: B1 chain with Y553A, A708K
B5: GST-E6APF727D (protein)
chain: B1 chain with A708K, F727D
B6: E6AP ligase Hect domain (GST removed by thrombin) (protein)
chain: INEPLNEVLEMDKDYTFFKVETENKFSFMTCPFILNAVTKNLGLYYDNRIRMYSERRITVLYSLVQGQQLNPYLRLKVRRDHIIDDALVRLEMIAMENPADLKKQLYVEFEGEQGVDEGGVSKEFFQLVVEEIFNPDIGMFTYDESTKLFWFNPSSFETEGQFTLIGIVLGLAIYNNCILDVHFPMVVYRKLMGKKGTFRDLGDSHPVLYQSLKDLLEYEGNVEDDMMITFQISQTDLFGNPMMYDLKENGDKIPITNENRKEFVNLYSDYILNKSVEKQFKAFRRGFHMVTNESPLKYLFRPEEIELLICGSRNLDFQALEETTEYDGGYTRDSVLIREFWEIVHSFTDEQKRLFLQFTTGTDRAPVGGLGKLKMIIAKNGPDTERLPTSHTCFNVLLLPEY
B7: GST-E6AP ligase Hect domain (protein)
chain: B6 chain

What was measured:
[1] = biological target: UbcH7˜125I-ubiquitin thioester, P68036
Sequence of UbcH7˜125I-ubiquitin thioester, P68036 (P68036 whole entry, looked up): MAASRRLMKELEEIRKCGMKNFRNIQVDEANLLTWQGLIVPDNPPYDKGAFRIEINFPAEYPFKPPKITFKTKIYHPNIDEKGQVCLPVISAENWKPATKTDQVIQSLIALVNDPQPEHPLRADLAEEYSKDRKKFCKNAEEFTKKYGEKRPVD

| Protein | Km- [1] [nM] | fold decrease in kcat of polyubiquitin chain formation (Q05086) |
| --- | --- | --- |
| B1 | 39 | – |
| B2 | 150 | decreased kcat 155-fold |
| B3 | 540 | – |
| B4 | 40 | decreased kcat 10-fold |
| B5 | 72 | 62-fold decrease in kcat |
| B6 | 91 | – |
| B7 | 89 | – |
